Test [1] has as its target T1, Human CD44v6 iso4-Fc (human, UniProt P16070-4 21-606, limits assumed, chemically biotinylated in the form called Bio-CD44v6).
T1 construct: Custom ordered from ProMab, produced in HKB11 cells; The biotinylated and the plain form are kept as one molecule; also called Bio-CD44v6; bio-CD44v6
The experiment in a line: SPR SCK, antibody captured via anti-kappa, CD44v6-Fc injected; apparent KD. The protocol: (§1) Kinetic measurements were performed on a BIAcore T200 instrument (Cytiva) using a SCK approach. An α-human Kappa antibody (GE Healthcare #28958325), functioning as a capture ligand, was immobilized onto all four surfaces of a CM5-S amine sensor chip according to manufacturer's recommendations. Antibodies were injected and captured at equal response units (RU). A four-fold dilution series of CD44v6, consisting of five concentrations ranging between 80 nM-0.3 nM, were prepared in running buffer and sequentially injected over the chip surfaces. Single injections of 100 nM CD44 (negative control) was also performed.
(§2) All experiments were performed at 25° C. in running buffer (HBS supplemented with 0.05% Tween20, pH 7.5) and the chip surfaces were regenerated with 10 mM glycine-HCl, pH 2.1. By subtracting the response curve of a reference surface (an α-human Kappa antibody immobilized surface or a streptavidin immobilized surface) and to a blank run (running buffer injected instead of antigen or antibody) response curve sensorgrams were obtained. Data was analyzed using the Biacore T200 Evaluation 3.1 software and a 1:1 Langmuir binding model.

In test [2] the target is T2, Human v6-peptide (human, N-terminal biotin).
T2 construct: Bachem #4108947, 43 amino acids, synthetic; also called Hm v6-peptide; hm v6-peptide
T2 peptide: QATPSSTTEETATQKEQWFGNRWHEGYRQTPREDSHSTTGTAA
Nature of the test: SPR SCK, biotin-peptide on SA chip, antibody injected; apparent KD. The protocol: (§3) For kinetic measurements of human v6-peptide, a streptavidin (SA) sensor chip was used to immobilize the v6-peptide at approximately 20 RU. A five-fold dilution series of each antibody, consisting of five concentrations ranging between 50 nM-0.08 nM, were prepared in running buffer and sequentially injected over the chip surfaces.
as §2

In test [3] the target is T2, Human v6-peptide. Nature of the test: SPR SCK, biotin-peptide on SA chip, antibody injected. Here is the method: as §3, §2
Test [4] concerns the target T1, Human CD44v6 iso4-Fc. Nature of the test: SPR SCK, antibody captured via anti-kappa, CD44v6-Fc injected. The protocol: as §1, §2

T1 sequence (P16070 other isoform, or with tags, fused parts or gaps limits assumed): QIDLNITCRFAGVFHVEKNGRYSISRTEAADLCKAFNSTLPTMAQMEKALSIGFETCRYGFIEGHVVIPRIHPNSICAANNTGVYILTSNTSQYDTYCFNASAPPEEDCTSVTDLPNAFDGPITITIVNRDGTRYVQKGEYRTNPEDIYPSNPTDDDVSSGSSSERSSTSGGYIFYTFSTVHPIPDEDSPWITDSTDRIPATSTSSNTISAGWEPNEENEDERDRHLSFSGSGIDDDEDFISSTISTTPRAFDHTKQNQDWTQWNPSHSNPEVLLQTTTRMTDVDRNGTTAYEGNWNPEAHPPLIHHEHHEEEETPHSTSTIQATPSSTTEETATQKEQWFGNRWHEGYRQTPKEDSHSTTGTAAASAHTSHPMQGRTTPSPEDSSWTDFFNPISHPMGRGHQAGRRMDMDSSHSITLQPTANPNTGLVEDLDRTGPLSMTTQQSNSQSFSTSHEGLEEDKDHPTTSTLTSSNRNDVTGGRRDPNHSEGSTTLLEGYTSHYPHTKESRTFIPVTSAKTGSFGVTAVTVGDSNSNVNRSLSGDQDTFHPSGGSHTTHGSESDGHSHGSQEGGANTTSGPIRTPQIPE

B1: U-MN114-19 IgG4 S228P (antibody, V domains shown)
VH: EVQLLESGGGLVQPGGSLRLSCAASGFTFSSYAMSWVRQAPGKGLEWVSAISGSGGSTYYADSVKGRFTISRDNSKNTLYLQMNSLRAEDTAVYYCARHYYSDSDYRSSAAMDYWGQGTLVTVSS
VL: DIQMTQSPSSLSASVGDRVTITCRASQSISSYLNWYQQKPGKAPKLLIYAASSLQSGVPSRFSGSGSGTDFTLTISSLQPEDFATYYCQQDLYLLTFGQGTKLEIK
notes: Human IgG4 S228P (EU), kappa; also called MN19; parental clone
B1: the Kd was determined as 3.3 nM with Human CD44v6 iso4-Fc [1] and 0.28 nM with Human v6-peptide [2]. In addition, the koff worked out at 0.00018 s⁻¹ in the test with Human v6-peptide [3] and 0.001 s⁻¹ with Human CD44v6 iso4-Fc [4]. The association rate constant (kon) with Human v6-peptide [3] worked out at 730000 M⁻¹ s⁻¹; with Human CD44v6 iso4-Fc [4] it was 320000 M⁻¹ s⁻¹.

As a reminder, the koff is the rate constant with which the complex falls apart. The kon is the rate constant with which the complex forms.

The record behind these values is patent US20250340662A1 (AKIRAM THERAPEUTICS, published 2025).
